Assay results from patent US20040048305.

Tests used:
[1] = molecular target: T1, bovine myelin basic protein (biotinylated MBP, Amersham Biosciences), P02687
T1 chain: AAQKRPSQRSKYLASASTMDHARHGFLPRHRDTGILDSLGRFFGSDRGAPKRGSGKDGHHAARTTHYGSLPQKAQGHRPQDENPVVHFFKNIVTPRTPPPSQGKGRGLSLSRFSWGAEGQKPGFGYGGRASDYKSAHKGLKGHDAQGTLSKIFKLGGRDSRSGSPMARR

[2] = molecular target: T2, peptide 3: Biotin-KKRFSFKKSFKLSGFSFK-COOH
T2 chain: KKRFSFKKSFKLSGFSFK

B1: GST-14171 fusion protein (glutathione S-transferase fused to the N-terminus of a partial 14171 molecule, amino acid residues 1-350 of SEQ ID NO:2) (protein)
chain: MEGDGGTPWALALLRTFDAGEFTGWEKVGSGGFGQVYKVRHVHWKTWLAIKCSPSLHVDDRERMELLEEAKKMEMAKFRYILPVYGICREPVGLVMEYMETGSLEKLLASEPLPWDLRFRIIHETAVGMNFLHCMAPPLLHLDLKPANILLDAHYHVKISDFGLAKCNGLSHSHDLSMDGLFGTIAYLPPERIREKSRLFDTKHDVYSFAIVIWGVLTQKKPFADEKNILHIMVKVVKGHRPELPPVCRARPRACSHLIRLMQRCWQGDPRVRPTFQEITSETEDLCEKPDDEVKETAHDLDVKSPPEPRSEVVPARLKRASAPTFDNDYSLSELLSQLDSGVSQAVEGP
**Q.** For B1, which “counts per minute at the two hour timepoint, 10 nM enzyme, 0.5 uM substrate” value [1] is on record?
**A.** about 21,000 cpm

**Q.** And the “phosphorylation of biotinylated MBP by soluble GST-14171 fusion protein” value [1]?
**A.** phosphorylated MBP

**Q.** What about the “signal-to-noise ratio at the two hour timepoint, 10 nM enzyme” value [1] of the same protein?
**A.** a signal-to-noise ratio of 13

**Q.** And the “substrate phosphorylation, [gamma-33P]ATP, streptavidin SPA beads” value [1]?
**A.** strong phosphorylation of bovine myelin basic protein

**Q.** What about the “counts per minute at the two hour timepoint, 10 nM enzyme, 0.5 uM substrate” value [2] of the same protein?
**A.** about 11,000 cpm

**Q.** What about the “signal-to-noise ratio at the two hour timepoint, 10 nM enzyme” value [2] of the same protein?
**A.** a signal-to-noise ratio of 9

**Q.** What about the “substrate phosphorylation, [gamma-33P]ATP, streptavidin SPA beads” value [2] of the same protein?
**A.** weak phosphorylation of the following peptide, named peptide 3
